The target of data set [1] is T1, recombinant hemagglutinin HA1 subunit (rHA, H5) (Influenza A virus A/Vietnam/1203/2004 …, UniProt Q5EP31 17-346). As to the kind of experiment: BLI; rHA immobilized; apparent KD; BLI at 30 C in sodium-potassium phosphate buffer pH 7.4 ([…]. The note with it: protein: commercial, label: none (rHA), 5'-biotin (vHA BLI).
Data set [2] addresses T1, recombinant hemagglutinin HA1 subunit …. As to the kind of experiment: BLI; 50 nM control, reference signal; BLI at 30 C in sodium-potassium phosphate buffer pH 7.4 ([…]. The following applies: protein: commercial; label: none (rHA); 5'-biotin (vHA BLI). A general note: BLI is a label-free optical method that tracks binding on a fibre tip over time.

This note sets out measurements from publication PMC7957560, “The Functional Role of Loops and Flanking Sequences of G-Quadruplex Aptamer to the Hemagglutinin of Influenza a Virus”.

B1: G7nt-T_A_T (structured_DNA)
DNA: GGGTGGGAGGGTGGG
In the case of B1, the Kd in data set [1] is 0.6 ± 0.2 nM.

B2: G7n5t (structured_DNA)
DNA: GGGTTATTTTGGGAGGGCGGGGGTT
For the molecule B2, the Kd in data set [1] (parallel G4, 74% monomer) worked out at 0.3 ± 0.2 nM.

B3: G7nt-A_A_A (structured_DNA)
DNA: GGGAGGGAGGGAGGG
Consider B3, for which the Kd in data set [1] amounted to 0.6 ± 0.4 nM.

B4: RHA0385 (structured_DNA)
DNA: TTGGGGTTATTTTGGGAGGGCGGGGGTT
B4: the Kd in data set [1] worked out at 0.6 ± 0.3 nM.

B5: G7-TTA_A_C (structured_DNA)
DNA: TTGGGGTTAGGGAGGGCGGGGGTT
Consider B5, for which the Kd in data set [1] (parallel G4, 86% monomer) worked out at 0.4 ± 0.2 nM.

B6: G7n3t (structured_DNA)
DNA: TTGGGGTTATTTTGGGAGGGCGGG
B6: the Kd in data set [1] (parallel G4, 100% monomer) came out at 0.4 ± 0.2 nM.

B7: G7nt (structured_DNA)
DNA: GGGTTATTTTGGGAGGGCGGG
Turning to B7, the Kd in data set [1] (parallel G4, 74% monomer) worked out at 0.7 ± 0.3 nM.

B8: G7nt-T_T_A (structured_DNA)
DNA: GGGTGGGTGGGAGGG
For B8, in data set [1], the Kd was determined as 0.8 ± 0.2 nM.

B9: G7nt-A_T_T (structured_DNA)
DNA: GGGAGGGTGGGTGGG
As to B9, the Kd in data set [1] turned out to be 0.4 ± 0.2 nM.

B10: G7-TTATTAA_A_C (structured_DNA)
DNA: TTGGGGTTATTAAGGGAGGGCGGGGGTT
Regarding B10, the Kd in data set [1] (parallel G4, 77% monomer) turned out to be 0.4 ± 0.2 nM.

B11: G7nt-T_T_T (structured_DNA)
DNA: GGGTGGGTGGGTGGG
For B11, the Kd in data set [1] is 0.7 ± 0.2 nM.

B12: control oligonucleotide (ssDNA)
DNA: CGACGCACCATTTGTTTAATATGTTTTTTAATTCCCCTTGTGGTGCGTCG
As for B12, in data set [2], the binding result was “no binding”.
